According to US20210388087A1 (Chugai, published 2021):
Positions count from the first letter of the chain named. Names may count otherwise.

T1: Human CD3eg linker (human)
T1 construct: Single chain: epsilon and gamma subunits of human CD3 joined by a 29-mer linker, Flag-tag at the C-terminus; also called recombinant human CD3
T1 chain: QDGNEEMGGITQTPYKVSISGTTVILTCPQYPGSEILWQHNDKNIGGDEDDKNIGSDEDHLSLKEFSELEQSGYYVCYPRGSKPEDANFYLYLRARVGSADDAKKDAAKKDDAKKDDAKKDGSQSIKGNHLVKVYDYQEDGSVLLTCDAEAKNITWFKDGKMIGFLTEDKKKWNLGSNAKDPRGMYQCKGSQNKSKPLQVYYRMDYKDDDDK

B1: H183/L072 VH H93I (antibody, name in Kabat numbering, V domains shown)
VH: QVQLVESGGGLVQPGRSLRLSCAASGFTFSNAWMHWVRQAPGKGLEWVAQIKDKGNAYAAYYAPSVKGRFTISRDDSKNSIYLQMNSLKTEDTAVYYCIYVHYASASTVLPAFGVDAWGQGTTVTVSS
VL: DIVMTQSPLSLPVTPGEPASISCQASQELVHMNRNTYLHWYQQKPGQAPRLLIYKVSNRFPGVPDRFSGSGSGTDFTLKISRVEAEDVGVYYCAQGTSVPFTFGQGTKLEIK
B2: H183/L072 VH H96L (antibody, name in Kabat numbering, V domains shown)
VH: B1 VH with I99H, H102L
VL: B1 VL
B3: H183/L072 VH K52N (antibody, name in Kabat numbering, V domains shown)
VH: B1 VH with K52N, I99H
VL: B1 VL
B4: H183/L072 VH I51P (antibody, name in Kabat numbering, V domains shown)
VH: B1 VH with I51P, I99H
VL: B1 VL
B5: H183/L072 VH I51W (antibody, name in Kabat numbering, V domains shown)
VH: B1 VH with I51W, I99H
VL: B1 VL
B6: H183/L072 VH I51T (antibody, name in Kabat numbering, V domains shown)
VH: B1 VH with I51T, I99H
VL: B1 VL
B7: H183/L072 VH H93M (antibody, name in Kabat numbering, V domains shown)
VH: B1 VH with I99M
VL: B1 VL
B8: H183/L072 VH I51A (antibody, name in Kabat numbering, V domains shown)
VH: B1 VH with I51A, I99H
VL: B1 VL
B9: H183/L072 VH I51E (antibody, name in Kabat numbering, V domains shown)
VH: B1 VH with I51E, I99H
VL: B1 VL
B10: H183/L072 VH I51L (antibody, name in Kabat numbering, V domains shown)
VH: B1 VH with I51L, I99H
VL: B1 VL
B11: H183/L072 VH K52R (antibody, name in Kabat numbering, V domains shown)
VH: B1 VH with K52R, I99H
VL: B1 VL
B12: H183/L072 VH K52S (antibody, name in Kabat numbering, V domains shown)
VH: B1 VH with K52S, I99H
VL: B1 VL
B13: H183/L072 VH K52M (antibody, name in Kabat numbering, V domains shown)
VH: B1 VH with K52M, I99H
VL: B1 VL
B14: H183/L072 VH I51N (antibody, name in Kabat numbering, V domains shown)
VH: B1 VH with I51N, I99H
VL: B1 VL
B15: H183/L072 VH I51V (antibody, name in Kabat numbering, V domains shown)
VH: B1 VH with I51V, I99H
VL: B1 VL
B16: H183/L072 VH I51Y (antibody, name in Kabat numbering, V domains shown)
VH: B1 VH with I51Y, I99H
VL: B1 VL
B17: H183/L072 VH K52Q (antibody, name in Kabat numbering, V domains shown)
VH: B1 VH with K52Q, I99H
VL: B1 VL
B18: H183/L072 VH K52L (antibody, name in Kabat numbering, V domains shown)
VH: B1 VH with K52L, I99H
VL: B1 VL
B19: H183/L072 VH K52A (antibody, name in Kabat numbering, V domains shown)
VH: B1 VH with K52A, I99H
VL: B1 VL
B20: H183/L072 VH K52F (antibody, name in Kabat numbering, V domains shown)
VH: B1 VH with K52F, I99H
VL: B1 VL
B21: H183/L072 VH I51H (antibody, name in Kabat numbering, V domains shown)
VH: B1 VH with I51H, I99H
VL: B1 VL
B22: H183/L072 VH H96I (antibody, name in Kabat numbering, V domains shown)
VH: B1 VH with I99H, H102I
VL: B1 VL
B23: H183/L072 VH I51K (antibody, name in Kabat numbering, V domains shown)
VH: B1 VH with I51K, I99H
VL: B1 VL
B24: H183/L072 VH K52T (antibody, name in Kabat numbering, V domains shown)
VH: B1 VH with K52T, I99H
VL: B1 VL
B25: H183/L072 VH K52P (antibody, name in Kabat numbering, V domains shown)
VH: B1 VH with K52P, I99H
VL: B1 VL
B26: H183/L072 VH I51R (antibody, name in Kabat numbering, V domains shown)
VH: B1 VH with I51R, I99H
VL: B1 VL
B27: H183/L072 VH H93L (antibody, name in Kabat numbering, V domains shown)
VH: B1 VH with I99L
VL: B1 VL
B28: H183/L072 VH I51G (antibody, name in Kabat numbering, V domains shown)
VH: B1 VH with I51G, I99H
VL: B1 VL
B29: H183/L072 VH I51F (antibody, name in Kabat numbering, V domains shown)
VH: B1 VH with I51F, I99H
VL: B1 VL
B30: H183/L072 VH I51Q (antibody, name in Kabat numbering, V domains shown)
VH: B1 VH with I51Q, I99H
VL: B1 VL
B31: H183/L072 VH H93P (antibody, name in Kabat numbering, V domains shown)
VH: B1 VH with I99P
VL: B1 VL
B32: H183/L072 VH H96M (antibody, name in Kabat numbering, V domains shown)
VH: B1 VH with I99H, H102M
VL: B1 VL
B33: H183/L072 VH I51S (antibody, name in Kabat numbering, V domains shown)
VH: B1 VH with I51S, I99H
VL: B1 VL
B34: H183/L072 VH I51D (antibody, name in Kabat numbering, V domains shown)
VH: B1 VH with I51D, I99H
VL: B1 VL
B35: H183/L072 VH K52I (antibody, name in Kabat numbering, V domains shown)
VH: B1 VH with K52I, I99H
VL: B1 VL
B36: H183/L072 VH K52H (antibody, name in Kabat numbering, V domains shown)
VH: B1 VH with K52H, I99H
VL: B1 VL
B37: H183/L072 VH I51M (antibody, name in Kabat numbering, V domains shown)
VH: B1 VH with I51M, I99H
VL: B1 VL
B38: H183/L072 VH H96A (antibody, name in Kabat numbering, V domains shown)
VH: B1 VH with I99H, H102A
VL: B1 VL
B39: H183/L072 VH K52G (antibody, name in Kabat numbering, V domains shown)
VH: B1 VH with K52G, I99H
VL: B1 VL
B40: H183/L072 VH H96P (antibody, name in Kabat numbering, V domains shown)
VH: B1 VH with I99H, H102P
VL: B1 VL
B41: H183/L072 VH K52E (antibody, name in Kabat numbering, V domains shown)
VH: B1 VH with K52E, I99H
VL: B1 VL
B42: H183/L072 VH K52D (antibody, name in Kabat numbering, V domains shown)
VH: B1 VH with K52D, I99H
VL: B1 VL

Biological target: T1, Human CD3eg linker
Experiment: Biacore SPR, vs template H183/L072

Binder | fold change of affinity
B1 | 0 fold
B2 | 0 fold
B3 | 0 fold
B4 | 0 fold
B5 | 0 fold
B6 | 0.2 fold
B7 | 0 fold
B8 | 0 fold
B9 | 0 fold
B10 | 0 fold
B11 | 0.8 fold
B12 | 0 fold
B13 | 0.6 fold
B14 | 0 fold
B15 | 1.1 fold
B16 | 0 fold
B17 | 0.3 fold
B18 | 0 fold
B19 | 0 fold
B20 | 0 fold
B21 | 0 fold

Binder | fold change of affinity
B22 | 0 fold
B23 | 1 fold
B24 | 0.5 fold
B25 | 0 fold
B26 | 0 fold
B27 | 0 fold
B28 | 0 fold
B29 | 0 fold
B30 | 0 fold
B31 | 0 fold
B32 | 0.1 fold
B33 | 0.4 fold
B34 | 0 fold
B35 | 0 fold
B36 | 0 fold
B37 | 0.3 fold
B38 | 0.3 fold
B39 | 0 fold
B40 | 0 fold
B41 | 0 fold
B42 | 0 fold
